Results on 45 molecules are retold here after patent US20260242478A1 (published 2026).

Where no end group is shown, it is not given here.

Assay [1] has as its target T1, anti-CD28 scFv (VH - linker 1 - VL) (biotinylated (site not stated)). The assay is described as follows: phage ELISA as above, wells pre-incubated with soluble CD28 as competitor.
In assay [2] the target is T1, anti-CD28 scFv (VH - linker 1 - VL). The assay is described as follows: phage ELISA; biotinylated anti-CD28 scFv on neutravidin plate, clonal phage supernatant, anti-M13 HRP detection.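 Note: before phage addition, wells were pre-incubated with blocking buffer plus soluble CD28 protein, or blocking buffer only, with no wash in between, signal reflects phage remaining bound after washing.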 Background: ELISA stands for enzyme-linked immunosorbent assay.
Description: (§1) Clonal phage were harvested as crude supernatants and screened via standard enzyme linked immunosorbent assays (ELISAs). […] Prior to the addition of clonal phage, wells were incubated with blocking buffer and CD28 soluble protein or blocking buffer alone. Without washing or aspirating, clonal phage supernatants were then added to the wells and incubated for a short time. Wells were then washed followed by detection of bound phage using a horse radish peroxidase conjugated anti-M13 antibody.
Assay [3] addresses T2, Anti-CD28 scFv (VH - linker 1 - VL) (biotinylated (site not stated)).
T2 construct: Captured as biotinylated scFv on neutravidin plates in the panning ELISA
Kind of assay: phage ELISA as above, wells pre-incubated with soluble CD28 (competitor).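 Note: ELISA of crude clonal phage supernatants added to wells pre-treated with soluble CD28 in blocking buffer, bound phage read out with HRP-conjugated anti-M13 antibody.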
T2 sequence (scFv, as listed by the source): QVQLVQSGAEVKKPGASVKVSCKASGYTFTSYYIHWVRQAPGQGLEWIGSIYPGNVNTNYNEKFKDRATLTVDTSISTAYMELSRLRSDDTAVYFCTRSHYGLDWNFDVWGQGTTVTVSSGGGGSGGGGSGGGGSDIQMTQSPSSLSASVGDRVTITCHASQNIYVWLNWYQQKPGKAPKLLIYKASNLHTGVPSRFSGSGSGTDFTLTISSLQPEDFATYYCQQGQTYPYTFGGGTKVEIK

The target of assay [4] is T2, Anti-CD28 scFv (VH - linker 1 - VL). Kind of assay: phage ELISA: biotinylated anti-CD28 scFv on neutravidin plate, clonal phage supernatant, anti-M13-HRP detection.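 Note: competition format: before phage supernatant was added, wells were preincubated with soluble CD28 protein or with blocking buffer only, and phage were added without an intervening wash.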
Description: as §1
Assay [5] concerns the target Anti-CD28 scFv (VH - linker 1 - VL) (biotinylated (site not given)). The assay is described as follows: phage binding ELISA on anti-CD28 scFv plate; wells pre-incubated with soluble CD28 as competitor.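 Note: clonal phage supernatants tested, bound phage read out with an HRP-linked anti-M13 antibody, reference wells received blocking buffer lacking CD28.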
The target of assay [6] is T3, Anti-CD28 scFv (VH - linker 1 - VL) (biotinylated (site not stated)).
T3 construct: Biotinylated scFv captured on neutravidin coated plates in the panning ELISA
The assay is described as follows: phage ELISA as above, wells pre-incubated with soluble CD28 (competitor).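 Note: ELISA of crude clonal phage supernatants added to wells pre-treated with soluble CD28 in blocking buffer, bound phage read out with HRP-conjugated anti-M13 antibody.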
T3 sequence (scFv, as listed by the source): as above

T1 sequence (scFv, as listed by the source): as above
Anti-CD28 scFv (VH - linker 1 - VL) (biotinylated (site not given)), sequence (scFv, as listed by the source): as above

In the case of MDWCPMNLWSECFN [Phage-173], the “CD28 scFv signal in presence of CD28” value in assay [1] was 0.124. Besides, the “CD28 scFv signal” value in assay [2] is 0.67.
With MDWCPRHMWHECFH [Phage-402], in assay [3], the “CD28 scFv signal in presence of CD28” value worked out at 0.171. Moreover, the “CD28 scFv signal” value in assay [4] was 1.81.
On to MDWCPRDMWAECFF [Phage-190], for which the “CD28 scFv signal in presence of CD28” value in assay [1] was 2.26. In assay [2], the “CD28 scFv signal” value came to 2.69.
With MDWCPRSMWDSCFN [Phage-399], the “CD28 scFv signal in presence of CD28” value in assay [3] stood at 0.142. In addition, the “CD28 scFv signal” value in assay [4] came to 2.02.
In the case of MFWCPKDMWAECFA [Phage-408], the “CD28 scFv signal in presence of CD28” value in assay [3] came to 0.113. The “CD28 scFv signal” value in assay [4] was determined as 1.26.
Regarding MDWCPAYLWAECFS [Phage-175], in assay [1], the “CD28 scFv signal in presence of CD28” value was found to be 0.12. In addition, the “CD28 scFv signal” value in assay [2] worked out at 0.64.
For VDWCPRYLWHVCYN [Phage-189], in that order: 0.061 and 0.065.
MDWCPKDMWAECFN [Phage-395]: in assay [3], the “CD28 scFv signal in presence of CD28” value was determined as 0.457. In addition, the “CD28 scFv signal” value in assay [4] is 2.11.
Take MDWCPSDLWHECFH [Phage-176]: in assay [1], the “CD28 scFv signal in presence of CD28” value was found to be 0.164. Moreover, in assay [2], the “CD28 scFv signal” value turned out to be 0.629.
With MDWCPSDMWHECYA [Phage-194], the “CD28 scFv signal in presence of CD28” value in assay [1] was 0.2. For the same molecule, the “CD28 scFv signal” value in assay [2] was found to be 2.47.
For MDWCPRDMWFECFN [Phage-393], in assay [3], the “CD28 scFv signal in presence of CD28” value is 0.778. For the same molecule, in assay [4], the “CD28 scFv signal” value is 2.42.
As for MDWCPMDMWVNCFN [Phage-193], in assay [1], the “CD28 scFv signal in presence of CD28” value was found to be 0.277. Moreover, the “CD28 scFv signal” value in assay [2] stood at 2.52.
As to MDWCPRNMWNECFF [Phage-398], in assay [3], the “CD28 scFv signal in presence of CD28” value is 0.43. Moreover, the “CD28 scFv signal” value in assay [4] came to 2.1.

B1: Phage-265 (peptide)
peptide: MDWCPRFMWDLCFA
modifications: cysteine pairing not given here; also: displayed on phage as pIII fusion, fusion limits and linker not given here
notes: Clonal phage of the Peptide-9 library, tested as crude phage supernatant; not shown: pIII of the bacteriophage
As for B1, the “CD28 scFv signal in presence of CD28” value in assay [5] came out at 0.725.
As to MHWCPTYMWSECFA [Phage-400], the “CD28 scFv signal in presence of CD28” value in assay [3] came out at 0.161. The “CD28 scFv signal” value in assay [4] was 1.84.
Consider MSWCPWDMWNECFA [Phage-403], for which, in assay [3], the “CD28 scFv signal in presence of CD28” value stood at 0.108. In addition, the “CD28 scFv signal” value in assay [4] turned out to be 1.52.

B2: Phage-278 (peptide)
peptide: MDWCPRSIWYLCFN
modifications: cysteine pairing not given here; also: displayed on phage as fusion to pIII, fusion limits and linker not given here
notes: as for B1
Consider B2, for which, in assay [5], the “CD28 scFv signal in presence of CD28” value was 1.34.
With MDWCPRDMWYECFN [Phage-191], in assay [1], the “CD28 scFv signal in presence of CD28” value came out at 0.235. In assay [2], the “CD28 scFv signal” value came out at 2.56.
For MDWCPVSLWDHCFN [Phage-177], in that order: 0.1 and 0.616.
MYWCPRDLWDVCFN [Phage-181]: the “CD28 scFv signal in presence of CD28” value in assay [1] worked out at 0.102. Moreover, in assay [2], the “CD28 scFv signal” value came to 0.512.
MDWCPMSMWAFCFD [Phage-405]: the “CD28 scFv signal in presence of CD28” value in assay [3] was 0.16. Moreover, the “CD28 scFv signal” value in assay [4] amounted to 1.41.
As to MHWCPINLWNECFS [Phage-184], the “CD28 scFv signal in presence of CD28” value in assay [1] stood at 0.098. Further, the “CD28 scFv signal” value in assay [2] was found to be 0.316.
With MDWCPRYMWYQCFS [Phage-196], the “CD28 scFv signal in presence of CD28” value in assay [1] was found to be 0.357. The “CD28 scFv signal” value in assay [2] was 2.36.
In the case of MDWCPSDMWANCFF [Phage-389], in assay [6], the “CD28 scFv signal in presence of CD28” value was determined as 0.316.
Take MDWCPRDMWTSCFN [Phage-404]: the “CD28 scFv signal in presence of CD28” value in assay [3] came out at 0.179. For the same molecule, the “CD28 scFv signal” value in assay [4] was found to be 1.41.
For MDWCPSYLWDQCFF [Phage-188], the “CD28 scFv signal in presence of CD28” value in assay [1] was determined as 0.079. The “CD28 scFv signal” value in assay [2] is 0.083.
For LHWCPITMWTYCYY [Phage-409], the “CD28 scFv signal in presence of CD28” value in assay [3] was determined as 0.516. Also, in assay [4], the “CD28 scFv signal” value is 1.21.
In the case of MDWCPLDMWVLCFA [Phage-401], in assay [3], the “CD28 scFv signal in presence of CD28” value stood at 0.169. Moreover, in assay [4], the “CD28 scFv signal” value came to 1.84.
In the case of MDWCPKHMWFMCFN [Phage-195], the “CD28 scFv signal in presence of CD28” value in assay [1] worked out at 0.372. Also, the “CD28 scFv signal” value in assay [2] was determined as 2.4.
In the case of MHWCPRYLWDECFN [Phage-180], the “CD28 scFv signal in presence of CD28” value in assay [1] is 0.127. Besides, in assay [2], the “CD28 scFv signal” value came to 0.55.
Consider MNWCPIDMWTECFN [Phage-406], for which the “CD28 scFv signal in presence of CD28” value in assay [3] came out at 0.175. The “CD28 scFv signal” value in assay [4] came to 1.4.
On to QDWCPTYLWHHCFN [Phage-186], for which, in assay [1], the “CD28 scFv signal in presence of CD28” value stood at 0.122. In addition, the “CD28 scFv signal” value in assay [2] was found to be 0.123.
With MDWCPRAMWDYCFY [Phage-397], the “CD28 scFv signal in presence of CD28” value in assay [3] is 0.339. For the same molecule, the “CD28 scFv signal” value in assay [4] worked out at 2.11.
Consider LDWCPRDLWHVCFF [Phage-178], for which the “CD28 scFv signal in presence of CD28” value in assay [1] was 0.105. The “CD28 scFv signal” value in assay [2] was 0.61.
For DVWCPKYMWSLCFN [Phage-192], in that order: 0.418 and 2.53.
As for MDWCPWILWNECFN [Phage-179], the “CD28 scFv signal in presence of CD28” value in assay [1] came to 0.137. Also, in assay [2], the “CD28 scFv signal” value stood at 0.581.
Consider TDWCPRDMWYLCFN [Phage-396], for which, in assay [3], the “CD28 scFv signal in presence of CD28” value is 0.301. The “CD28 scFv signal” value in assay [4] turned out to be 2.11.
Turning to MDWCPKHLWNECFN [Phage-174], in assay [1], the “CD28 scFv signal in presence of CD28” value amounted to 0.105. Besides, in assay [2], the “CD28 scFv signal” value came to 0.663.
For MHWCPRSLWNECYF [Phage-182], in that order: 0.115 and 0.456.
Regarding IDWCPRDLWALCFN [Phage-183], the “CD28 scFv signal in presence of CD28” value in assay [1] worked out at 0.129. Further, the “CD28 scFv signal” value in assay [2] turned out to be 0.37.
With MNWCPIHMWNQCFA [Phage-407], the “CD28 scFv signal in presence of CD28” value in assay [3] is 0.133. Further, the “CD28 scFv signal” value in assay [4] stood at 1.37.
MDWCPFDMWADCFF [Phage-391]: the “CD28 scFv signal in presence of CD28” value in assay [3] amounted to 0.215. In assay [4], the “CD28 scFv signal” value came out at 2.53.
Turning to MDWCPPYLWYECFA [Phage-172], the “CD28 scFv signal in presence of CD28” value in assay [1] was 0.094. For the same molecule, in assay [2], the “CD28 scFv signal” value amounted to 0.692.
The like results for IGKLTLCLNADLVI [Phage-187] were, in that order, 0.1 and 0.116.
As to MDWCPRYMWSDCFF [Phage-394], the “CD28 scFv signal in presence of CD28” value in assay [3] is 0.377. Besides, in assay [4], the “CD28 scFv signal” value was found to be 2.28.
